Data taken from patent EP4644419A1 (Hangzhou Zhongmeihuadong Pharmaceutical Co., Ltd., dated 2025).

T1: monkey antigen protein (monkey CD112R, Uniprot ID: A0A2K5WVV8) (monkey, UniProt A0A2K5WVV8 41-171)
T1 sequence: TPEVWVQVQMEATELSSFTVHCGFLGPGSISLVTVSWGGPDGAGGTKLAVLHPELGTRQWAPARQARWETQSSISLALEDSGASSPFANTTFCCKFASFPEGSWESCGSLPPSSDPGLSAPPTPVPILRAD

T2: human CD112R antigen protein huCD112R-His (Acro Biosysterm, PVG-H52H4) (human, UniProt Q6DKI7 41-171)
T2 construct: purchased; also called human antigen protein; not shown: His tag
T2 sequence (looked up): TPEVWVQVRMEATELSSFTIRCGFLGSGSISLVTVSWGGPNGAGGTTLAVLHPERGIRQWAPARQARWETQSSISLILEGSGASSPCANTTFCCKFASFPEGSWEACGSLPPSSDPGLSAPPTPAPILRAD

B1: C110 (antibody, human IgG1, kappa, V domains shown)
VH: EVQLQQSGAELAKPGASVKLSCTVSGFNIKDTYIHWVKQRPEQGLEWIGGIDPAIGNTVSASKFQDKATITADTSSSTAYMQLSSLTSGDTAVYYCARERVHSNTLYYAMDYWGQGTSVTVSS
VL: DIVLTQSPASLAVSLGQRATISCRASKSVSISGYSYMHWYQQKPGQPPKLLIYLASNLESGVPARFSGSGSGTDFTLNIHPVEEEDAATYYCQHSRELPPTFGGGTKLEIKR
B2: C116 (antibody, human IgG1, kappa, V domains shown)
VH: EVKLVESGGGLVQPGGSLKLSCAVSGFTFSSYTMSWVRQTPEKRLELVAKISNSGGSTNYPDTVKGRFTLSRDNVKNTLYLQMSSLKSEDTAIYYCTRYSWDVYAMDYWGQGTSVTVSS
VL: DIQMTQSPASLSASVGETVIITCRASENIYSYLAWYQQKQGKSPHLLVYNAETLVEGVPSRFSGSGSATQFSLKINSLQPEDFGTYYCQHHYGDPTFGGGTKLEIKR
B3: C43 (antibody, human IgG1, kappa, V domains shown)
VH: QVQLQQPGAELVRPGTSVKLSCKASGNTFTTYWMHWVKQRPGQGHEWIGVIDASDSNTKYNQKFKGKATLTVDTSSSTAYMQLSSLTSEDSAVYYCARYYSGSSYGLDYWGQGTTLTVSS
VL: DIQMTQTASSLSASLGDRVTISCRASQDISNYLNWYQQKPDGTVKLLIYYTSRLHSGVPSRFSGSGSGTDYSLTITNLEQEDIASYFCQQGNMFPPTFGGGTKLEIKR
B4: C69 (antibody, human IgG1, kappa, V domains shown)
VH: EVQLQQSGPVLVKPGASVKMSCKASGYRLTDYYMHWVKQSHGKSLEWIGIINPYNGGTSYNQKFKGKATLTVDKSSSTAYMELNSLTSDDSAVYYCARDSSNVGNDMDYWGQGTSVSVSS
VL: DIQMTQTTSSLSASLGDRVTISCRASQDISNYLNWYLQKPDGTVKLLIYYSSRLHSGVPSRFSGSGSGTDYSLTINNLEQEDIATYFCQQGNTLPRTFGGGTKLEIRR
B5: C25 (antibody, human IgG1, kappa, V domains shown)
VH: QVQLQQPGAELVRPGTSVKLSCKASGNTFTSYWMHWVKQRPGQGHEWIGVIDASDSKTKYNQKFKGKATLTVDTSSSTAYMQLSSLTSEDSAVYYCARYYSGSSYGLDYWGQGTTLTVSS
VL: DIQMTQTASSLSASLGDRVTISCRASQDISNYLNWYQQKPDGTVKLLIYYTSRLHSGVPSRFSGSGSGTDYSLTISNLEQEDIATYFCQQGNTLPPTFGGGTKLEIKR
B6: C119 (antibody, human IgG1, kappa, V domains shown)
VH: EVKLVESGGGLVQPGGSLKLSCVASGFTFNTYIMSWVRQTPEKRLELVADISNSGGNTYYSDTVKGRFTISRDNAKNTLYLQMSSLKSEDTAMYYCARPDNWDPFVYWGQGTLVTVSA
VL: DIQMTQSSSSFSVSLGDRVTITCKASEDIYARLAWYQQKPGNAPRLLISGATSLETGVPSRFSGSGSGKNYTLSITSLQTEDVGTYYCQQHWSTPWTFGGGTNLEIKR
B7: C51 (antibody, human IgG1, kappa, V domains shown)
VH: QVQLQQSGAELVRPGASVTLSCKASGYTFTDYEMHWVKQTPVHGLEWIGAIDPETGGTAYNQKFKGKAILTADKSSSTAYMELRSLTSEDSAVYYCTRWITTVVATLYYFDYWGQGTTLTVSS
VL: DIVMTQSQKFMSTSVGDRVSITCKASQNVRTAVAWYQQKPGQSPKALIYLASNRHTGVPDRFTGSGSGTDFTLTISNVQSEDLADYFCLQHWNYPLTFGAGTKLELKR
B8: C6 (antibody, human IgG1, kappa, V domains shown)
VH: QVHLHQSGPELVKPGASVKISCKASGYTFTAYYINWVKQRPGQGLEWIGWIFPGSDSTYYNEKFKGRATLTVDKSSSTAYMLLNSLTSEDSAVYFCARDGELRGPFDYWGQGTTLTVSS
VL: DIQMTQSPSSLSASLGGKVTITCKASQDINKYIAWYQHKPGKSPRLLIHYTSTLQAGIPSRFSGSGSGRDYSFSISNLEPEDSATYYCLQYDNLLTFGGGTKLEIKR
B9: C45 (antibody, human IgG1, kappa, V domains shown)
VH: QVHLQQSGPDLVKPGVSVKISCKASGYTFTDYYINWVKQRPGQGLEWIGWIFPGSGTTYYNEKFKGKATLTVDKSSSTAYMLLSSLTSEDSAVYFCARDGGLRGPFDYWGQGTTLTVSS
VL: DIQMTQSPSSLSASLGGKVTITCKANQDINKYIAWYQYKPGKGPRLLIHYTSTLQPDIPSRFSGSGSGRDFSFSISNLEPEDIATYYCLQYDYLYTFGGGTKLEIKR
B10: C44 (antibody, human IgG1, kappa, V domains shown)
VH: QVQLQQSGPELMKPGASLKISCKASGYTFTDSYINWVKQRPGQGLEWIGWIFPGSGSTYYNEKFKGTATLTVDKSSSTAYMLLSSLTSEDSAAYFCARDGGLRGPFDYWGQGTTLTVSS
VL: DIQMTQSPSSLSASLGGKVTITCKASQDINKYIAWYQHKPGKGPRLLIHYTSTLQSGIPSRFSGSGSGRDYFFSISNLESEDIATYYCLQYDHLLTFGGGTKLEIKR
B11: C117 (antibody, human IgG1, kappa, V domains shown)
VH: QVQLQQSGAELARPGASVKMSCKASGYTFTDYWMQWVKQRPGQGLEWIGAIFPGNGETRDTQKFKGRATLTADRSSSTAYIQLSSLTSEDSAVYYCATFNNYLDYWGQGTTLTVAS
VL: QIVLTQSPAIMSASPGEKVTMTCSASSSVSYMHWYQQKSGASPKRWIYDTSKLTSGVPARFSGSGSGTSYSLTISNMEAEDAATYYCQQWISNPYTFGGGTKLEIKR
B12: C33 (antibody, human IgG1, kappa, V domains shown)
VH: QVQLQQSGPELVKPGASVKISCKASGYTFTDYYINWVKQRPGQGLEWIGWIFPGSGSTYYNEKFKGKATPTVDKYSSTAYMLLSSLTSEDSAVYFCAREDYFDRGDCWGQGTSVTVSS
VL: QIVLTQSPAIMSASPGEKVTMTCSASSSINYMHWYQQKPGTSPKRWIYDTSKLASGVPARFSGSGSGTSYSLTISSMEAEDAATYYCHQRSSYPFTFGSGTKLEIKR
B13: C118 (antibody, human IgG1, kappa, V domains shown)
VH: QVQLQQPGAELVKPGTSVKLSCKAAGYIFTSSWMHWVKQRPGQGLEWIGEINPSDGRTNYNEKFKNKATLTVDHSSSTAYMQLSSLTSEDSAVYYCASNADRAYYTMDYWGQGTSVTVSS
VL: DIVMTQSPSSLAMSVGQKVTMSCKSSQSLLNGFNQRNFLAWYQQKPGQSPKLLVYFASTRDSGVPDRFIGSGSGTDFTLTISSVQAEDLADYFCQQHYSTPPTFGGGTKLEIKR
B14: C112 (antibody, human IgG1, kappa, V domains shown)
VH: QVQLQQPGAELVKPGASVKLSCKASGYTFTSSWMHWVKQRPGQGLEWIGEINPSDGRTNYNEKFKSKATLTVDHSSSTAYMQLSSLTSEDSAVYYCASNADRAYYTMDYWGQGTSVTVSS
VL: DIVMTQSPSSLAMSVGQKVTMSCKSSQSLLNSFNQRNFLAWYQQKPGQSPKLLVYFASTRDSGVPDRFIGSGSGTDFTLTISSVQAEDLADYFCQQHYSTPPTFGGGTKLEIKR
B15: C61 (antibody, human IgG1, kappa, V domains shown)
VH: DVQLQESGPGLVKPSQSLSLTCSVTGYSITSNYYWNWIRQFPGNNLEWMGYISSDGTNNYNPSLRNRISITRDTSKNQFFLKLNSVTTEDTATYYCARGLRYGPWGQGTTLTVSS
VL: QLILTQSSSASFSLGASAKLTCTLSSQHSTYTIEWYQQQPLKAPKYVMEVKNDGSHRTGDGIPDRFSGSSSGADRYLSISNIQPEDEAIYICGVGDINNYIFGGGTKVTVLR
B16: C38 (antibody, human IgG1, kappa, V domains shown)
VH: QVQLQQSGAELMKPGASVKLSCKATGYTFTGYWIEWVKQRPGHGLEWIGEILPESGRTNYNEKFKGKATFTADTSSNTAYMQLSSLTTEDSAIYYCASLLFFDYWGQGTTLTVSS
VL: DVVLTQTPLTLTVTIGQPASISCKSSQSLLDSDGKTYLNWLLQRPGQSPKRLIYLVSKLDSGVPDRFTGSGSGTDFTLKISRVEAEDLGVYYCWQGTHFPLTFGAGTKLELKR
B17: C121 (antibody, human IgG1, kappa, V domains shown)
VH: EVQLQQSGPEVVKPGASVKISCKASGNTFTDYFINWVKQSHGKSLEWIGDINPDNGGTNYNQKFKGKATLTVDKSSGTAFMGLRSLTSEDSAVYYCATLYFDYWGQGTSLTVSS
VL: DIVMTQSPSSLSVSAGEKVTMSCKSSQSLLNSGNQKNYLAWYQQKPGQPPKLLIYGASTRESGVPDRFTGSGSGTDFTLTISSVQAEDLAVYYCQNAHSSPYTFGGGTRLEIKR
B18: C122 (antibody, human IgG1, kappa, V domains shown)
VH: EVQLQQSGPEVVKPGASVKISCKASGNTFTDYFINWVKQRHGKSLEWIGDVNPDNGGTNYNQKFKGKATLTVDKSSGTAFMGLRSLTSEDSAVYYCATLFFDSWGQGTTLTVSS
VL: DIVMTQSPSSLNVSAGEKVTMSCKSSQSLLNSGNQKNYLAWYQQKPGQPPKLLIYGASTRESGVPDRFTGSGSGTDFTLTISSVQAEDLALYYCQNAHSSPYTFGGGTKLEIKR
B19: C9 (antibody, human IgG1, kappa, V domains shown)
VH: EVQLQQSGAELVKPGASVKLSCTASGFNIKDIYMHWLKQRPEQGLEWIGRIDPTNGNSEYDPRFRGKATLTADTSSNIAYLQLSSLTSEDTAVYYCARFGIYPYFDYWGQGTTLTVSS
VL: GIVMTQTPKFLLVSAGDRVTITCKASQSVNKAVVWYQQKPGQSPKLLISYASNRYTGVPDRFTGSGYGTDFTFSISTVQAEDLAVYFCQQDYSSPWTFGGGTKLEIKR
B20: C123 (antibody, human IgG1, kappa, V domains shown)
VH: EVQLVESGGGLVKPGGSLKLSCAASGFTFSNFAMSWVRQTPAMRLESVATIVNGGINTYYPDTVKGRFTVSRDNAKNTLYLQMSSLRSEDTAIYYCARHDDFLYYAMDYWGQGTSVTVSS
VL: QIVLTQSPAIMSASPGEKVTMTCSASSSVSYMFWYQQKPGSSPRLLIYDTSNLASGVPVRFSGSGSGTSYSLTISRLEAEDAATYYCQQWTSYPLTFGAGTKLDLKR
B21: C143 (antibody, human IgG1, kappa, V domains shown)
VH: EVQLVESGGGLVKPGGSLKLSCAASGFTFSNFAMSWVRQTPAMRLESVATIVNGGINTYYPDTVKGRFTVSRDNAKNTLYLQMSSLRSEDTAIYYCARHDDFLYYAMDYWGQGTSVTVSS
VL: QIVLTQSPAIMSASPGEKVTMTCSASSSVNYMFWYQQKPGSSPRLLIYDTSNLASGVPVRFSGSGSGTSYSLTISRLEAEDAATYYCQQWTSYPLTFGAGTKLDLKR

Key:
[1] = target: T1, monkey antigen protein (monkey CD112R, …); assay: ELISA, monkey antigen protein (as Example 6.1)
[2] = target: T2, human CD112R antigen protein …; assay: ELISA, huCD112R-His coated on plate

Row | Binder | EC50 [1] [nM] | EC50 [2] [nM]
1 | B1 | 0.034 | 0.032
2 | B2 | 0.061 | 0.025
3 | B3 | 0.044 | 0.051
4 | B4 | 0.051 | 0.023
5 | B5 | 3.8 | 0.052
6 | B6 | 0.08 | 0.025
7 | B7 | 0.224 | 0.228
8 | B8 | 0.058 | 0.055
9 | B9 | 0.114 | 0.059
10 | B10 | 0.076 | 0.053
11 | B11 | 0.045 | 0.041
12 | B12 | – | 1.3
13 | B13 | 0.057 | 0.029
14 | B14 | 0.055 | 0.028
15 | B15 | – | 0.089
16 | B16 | – | 0.064
17 | B17 | 0.055 | 0.037
18 | B18 | 0.031 | 0.03
19 | B19 | 0.07 | 0.052
20 | B20 | 0.056 | 0.035
21 | B21 | 0.04 | 0.025
